T1: CCR10 (Homo sapiens, UniProt Q9NPB9)
T1 construct: Full length CCR10 expression constructs were made in pIRESpuro expression vector; expressed in transfected cells; HEK293-CCR10)
T1 sequence (Q9NPB9 1-350): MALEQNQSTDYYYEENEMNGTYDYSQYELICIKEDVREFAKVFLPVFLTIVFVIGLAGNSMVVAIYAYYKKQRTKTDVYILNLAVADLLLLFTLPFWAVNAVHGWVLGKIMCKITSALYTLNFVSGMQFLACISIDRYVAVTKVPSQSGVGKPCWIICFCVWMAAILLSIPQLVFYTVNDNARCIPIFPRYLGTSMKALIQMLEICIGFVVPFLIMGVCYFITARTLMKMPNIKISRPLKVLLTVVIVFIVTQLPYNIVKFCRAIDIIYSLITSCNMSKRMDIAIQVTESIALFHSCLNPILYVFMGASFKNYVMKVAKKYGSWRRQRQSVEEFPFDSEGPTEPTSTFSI

T2: CCR7 (Homo sapiens, UniProt P32248)
T2 construct: host or cells: mouse myeloma NSO
T2 sequence (P32248 25-378): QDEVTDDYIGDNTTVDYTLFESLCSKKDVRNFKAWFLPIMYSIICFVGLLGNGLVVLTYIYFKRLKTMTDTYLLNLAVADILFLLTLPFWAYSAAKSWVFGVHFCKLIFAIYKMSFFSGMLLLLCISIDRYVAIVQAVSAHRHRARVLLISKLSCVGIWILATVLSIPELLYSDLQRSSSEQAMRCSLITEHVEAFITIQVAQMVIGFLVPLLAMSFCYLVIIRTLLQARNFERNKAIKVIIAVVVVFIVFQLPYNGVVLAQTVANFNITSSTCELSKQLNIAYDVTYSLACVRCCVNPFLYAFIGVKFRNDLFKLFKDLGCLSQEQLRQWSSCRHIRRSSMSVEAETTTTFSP

B1: TECK: thymus expressed chemokine, soluble recombinant (protein)
chain: QGVFEDCCLAYHYPIGWAVLRRAWTYRIQEVSGSCNLPAAIFYLPKRHRKVCGNPKSREVQRAMKLLDARNKVFAKLHHNTQTFQAGPHAVKKLSSGNSKLSSSKFSNPISSSKRNVSLLISANSGL
B2: SLC: secondary lymphoid-tissue chemokine, soluble recombinant (protein, UniProt O00585 24-134, looked up)
C-C motif chemokine 21: SDGGAQDCCLKYSQRKIPAKVVRSYRKQEPSLGCSIPAILFLPRKRSQAELCADPKELWVQQLMQHLDKTPSPQKPAQGCRKDRGASKTGKKGKGSKGCKRTERSQTPKGP
B3: I309: stalkokine form of chemokine I309 (protein)
chain: KSMQVPFSRCCFSFAEQEIPLRAILCYRNTSSICSNEGLIFKLKRGKEACALDTVGWVQRHRKMLRHCPSKRKEFGGTFEKQIGEVKPRTTPAAGGMDESVVLEPEATGESSSLEPTPSSQEAQRALGTSPELPTGVTGSSGTRLPPTPKAQDGGPVGTELFRVPPVSTAATWQSSAPHQPGPSLWAEAKTSEAPSTQDPSTQASTASSPAPEENAPSEGQRVWGQGQSPRPENSLEREEMGPVPAHTDAFQDWGPGSMAHVSVVPVSSEGTPSREPVASGSWTPKAEEPIHATMDPQRLGVLITPVPDAQA
modifications: left off: small tags and cut ends

Key:
[1] = target: T1, CCR10; test: Homologous competition binding of radiolabeled chemokine on HEK293-CCR10 cells
Excerpt: Human, viral and murine recombinant chemokines were obtained from R&D Systems (Minneapolis, Minn.; http://cytokine.rndsystems.com/cyt_cat/cyt_cat.html). ^125I-labeled ELC and TECK were obtained from Amersham. Full length CCR10 expression constructs were made in pIRESpuro expression vector (Clontech, Palo Alto, Calif.) with a FLAG epitope tag and prolactin signal sequence, and used to generated stable transfectants in HEK293 cells. Transient and stable transfections for CCR10 and stalkokines were done using Superfect reagent (Qiagen, Valencia, Calif.) following manufacturer's protocol. Stably-transfected cells were generated by selection in 2 ug/mL puromycin for 7 days, and expression was confirmed by FACS analysis of the FLAG epitope using anti-FLAG M1 (Sigma, St. Louis, Mo.) and 2′ anti-mouse PE conjugate (Coulter Immunotech, Miami, Fla.).
(§1) Furthermore ELC-SK mediated adhesion was abolished in the presence of soluble native ELC as a competitor (FIG. 3A, top row). […] Moreover, radiolabeled ELC was used in a traditional homologous competition assay in the presence of increasing concentrations of unlabeled ELC. […] Taken together, the stalkokine-based adhesion and radiolabeled ligand binding/homologous competition assays indicate that CCR10 is a new chemokine receptor that bound a novel compliment of chemokines.

[2] = target: T1, CCR10; test: Spectrum of ligands that bind to CCR10; format: binding
Excerpt: as §1

[3] = target: T2, CCR7; test: Binding of CCR7-NSO cells to immobilized stalkokines
Method: (§2) In one set of experiments, five 8 well chamber slides (Lab-Tek II, Nalge Nunc International, Rochester, N.Y.), 250 ul of 10 ug/ml anti-his antibody (R&D Systems, Minneapolis, Minn.) in PBS was added to each well and incubated at room temperature overnight (typically 16 hours). Following, the liquid in each well was aspirated and washed once for approximately 5 minutes with 500 ul of PBS. The wells were then “blocked” (blocked for any additional protein binding sites) with the addition of 250 ul of blocking solution (2% fetal bovine serum, 0.5% BSA in PBS) and incubation for 1 hour at room temp (e.g., 20° C.). The liquid in each well was aspirated and 250 ul of supernatant containing the chemokine-stalk-immobilization domain fusion proteins (SDF1a-FRAC, finetaxin-FRAC, CCL27-FRAC, 1309-FRAC, MIP3a-FRAC, ELC-FRAC, SLC-FRAC, MDC-FRAC, TARC-FRAC, or BRAK-FRAC) or the control supernatant was added to two wells. Each slide contained two wells with control supernatant (from mock-transfected cells) and two wells with the positive control SDF1a (which binds the ubiquitous chemokine receptor CXCR4). The four other wells were for experimental samples. The supernatants were incubated for one hour at room temperature (typically 20° C.), then incubated for an additional hour at 37° C. […] The slide was then ready for addition of cells for assay. […]

[4] = target: T3, CCR8 (Homo sapiens, UniProt P51685); test: Binding of CCR8-NSO cells to immobilized stalkokines
T3 construct: host or cells: mouse myeloma NSO
Method: as §2

T3 sequence (P51685 whole entry): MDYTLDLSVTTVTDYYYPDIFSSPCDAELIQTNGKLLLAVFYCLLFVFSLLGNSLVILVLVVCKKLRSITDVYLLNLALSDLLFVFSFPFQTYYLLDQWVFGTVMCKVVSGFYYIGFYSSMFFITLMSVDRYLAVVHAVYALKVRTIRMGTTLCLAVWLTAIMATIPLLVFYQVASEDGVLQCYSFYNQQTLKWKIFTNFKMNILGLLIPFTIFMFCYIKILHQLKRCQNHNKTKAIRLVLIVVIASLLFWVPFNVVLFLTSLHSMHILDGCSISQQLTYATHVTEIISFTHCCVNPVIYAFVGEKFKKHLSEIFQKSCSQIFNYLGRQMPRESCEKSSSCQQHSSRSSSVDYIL

Molecule	Binding of radiolabeled chemokine in homologous competition with cold chemokine [1]	Affinity of binding to CCR10 [2]	Binding to Stalkokine form [3]	Binding to Stalkokine form [4]
B1	Nearly identical results	high affinity	–	–
B2	–	high affinity	no	–
B3	–	–	–	yes, yes

— US6699677B1, “Tethered ligands and methods of use” (ChemoCentryx, Inc., priority 1999, dated 2004)
